In PMC5317049, “Ex vivo^18O-labeling mass spectrometry identifies a peripheral amyloid β clearance pathway” (Molecular Neurodegeneration, 2017):

B1: ponezumab: C-terminal (Aβ X-40) antibody ponezumab (antibody, chains of the INN, looked up, V domains shown)
VH: QVQLVQSGAEVKKPGASVKVSCKASGYYTEAYYIHWVRQAPGQGLEWMGRIDPATGNTKYAPRLQDRVTMTRDTSTSTVYMELSSLRSEDTAVYYCASLYSLPVYWGQGTTVTVSS
VL: DVVMTQSPLSLPVTLGQPASISCKSSQSLLYSDAKTYLNWFQQRPGQSPRRLIYQISRLDPGVPDRFSGSGSGTDFTLKISRVEAEDVGVYYCLQGTHYPVLFGQGTRLEIK

Key:
IDE = conditions: EDTA in plasma collection tubes; cited from earlier work
Aβ = conditions: than solanezumab; cited from earlier work
Aβ1-40 = biological target: T1, Aβ1-40 (Homo sapiens, UniProt P05067); experiment: Effect of antibodies on Aβ degradation in 5% serum; type: biochemical; conditions: 4 μg recombinant antibody in 1 ml PBS with 0.016 μM labeled Aβ1-40, 1 h pre-incubation, then 5% serum overnight, room temperature; IP-MALDI MS
T1 construct: To 1 ml PBS containing isotopic labeled Aβ1-40 (0.016 μM) 4 μg of each of the recombinant antibodies; purchased Anaspec, Inc
Description: The antibodies were expressed and purified as previously described. Each sample was spiked with serum (5%, end concentration) followed by incubation overnight at room temperature. The samples were placed in a 100 °C heating block for five minutes to disrupt potential antibody/Aβ complexes, and subsequently centrifuged for 10 min at 4 °C (31.000 x g). The supernatants were transferred to new tubes and Aβ peptides were immunoprecipitated and analyzed by mass spectrometry as described above.

[1] = biological target: T2, insulin-degrading enzyme (IDE) (Homo sapiens, UniProt P14735); experiment: Inhibition of IDE activity by insulin; type: biochemical; conditions: increasing insulin (0.1, 1 or 10 μM), PBS spiked with Aβ1-40 Arg13C15N, overnight, room temperature; IP-MALDI MS (Fig. 5c)
T2 construct: purchased Sigma
Description: […] The samples were incubated overnight at room temperature. Immunoprecipitation and mass spectrometry were conducted as described above.

plasma Aβ = conditions: anti-amyloid treatment; 45 (solanezumab), 9, 22 (ponezumab), 7; cited from earlier work
From the text: To explore this hypothesis, we tested the effect of recombinant versions of the antibodies solanezumab, ba ...

Molecule	effect on proteolytic degradation of Aβ1-40 in serum (Aβ1-40)	increase of plasma Aβ concentration compared to physiological levels (plasma Aβ)	further results
O=C(O)CN(CCN(CC(=O)O)CC(=O)O)CC(=O)O [EDTA]			effect on IDE proteolytic activity (IDE): inhibit IDE proteolytic activity
crenezumab: recombinant anti-Aβ antibody crenezumab	did not block the degradation		affinity for Aβ compared with solanezumab (Aβ): much lower affinity
insulin: insulin added as competing substrate to inhibit IDE-mediated proteolytic activity			inhibition of IDE-mediated proteolysis of Aβ1-40 Arg13C15N [1]: abundance of Aβ1-20 decreased with increasing insulin concentration
solanezumab: recombinant version of the mid-domain anti-Aβ antibody solanezumab	effectively abrogated	up to thousand-fold	
B1		up to thousand-fold	
